One assay addresses SBP-RNF20 (baculovirus) (human, UniProt Q5VTR2 1-975). The assay is described as follows: pull-down + SEC.
Another assay deals with SFB-RNF40 (baculovirus) (human, UniProt O75150 1-1001). The experiment in a line: pull-down + SEC.

A word on the stoichiometry N: it is a count of units in the complex or per binding partner.

SBP-RNF20 (baculovirus), sequence (Q5VTR2 whole entry): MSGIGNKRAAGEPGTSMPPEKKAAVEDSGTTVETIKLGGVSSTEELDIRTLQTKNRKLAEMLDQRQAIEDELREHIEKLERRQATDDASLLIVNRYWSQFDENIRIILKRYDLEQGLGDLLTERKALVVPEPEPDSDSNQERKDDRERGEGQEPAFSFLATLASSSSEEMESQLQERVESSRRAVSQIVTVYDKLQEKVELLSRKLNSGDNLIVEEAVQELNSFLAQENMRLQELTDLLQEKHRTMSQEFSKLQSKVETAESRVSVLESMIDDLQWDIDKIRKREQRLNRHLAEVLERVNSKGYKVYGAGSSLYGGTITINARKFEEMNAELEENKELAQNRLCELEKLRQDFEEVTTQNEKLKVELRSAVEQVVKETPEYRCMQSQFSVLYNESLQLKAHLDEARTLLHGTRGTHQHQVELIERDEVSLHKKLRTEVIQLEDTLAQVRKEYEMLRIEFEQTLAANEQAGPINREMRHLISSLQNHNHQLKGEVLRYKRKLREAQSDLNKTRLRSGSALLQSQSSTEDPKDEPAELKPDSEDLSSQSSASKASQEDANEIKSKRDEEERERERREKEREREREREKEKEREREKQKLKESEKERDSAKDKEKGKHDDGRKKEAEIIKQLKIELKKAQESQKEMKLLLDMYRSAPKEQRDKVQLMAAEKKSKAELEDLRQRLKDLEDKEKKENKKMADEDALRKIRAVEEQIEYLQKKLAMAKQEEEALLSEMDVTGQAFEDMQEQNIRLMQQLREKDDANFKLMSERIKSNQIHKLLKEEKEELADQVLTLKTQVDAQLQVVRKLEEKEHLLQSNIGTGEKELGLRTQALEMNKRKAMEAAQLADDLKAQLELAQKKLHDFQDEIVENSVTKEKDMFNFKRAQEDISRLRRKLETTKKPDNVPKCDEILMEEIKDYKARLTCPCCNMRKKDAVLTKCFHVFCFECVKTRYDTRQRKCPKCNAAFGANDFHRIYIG
SFB-RNF40 (baculovirus), sequence (O75150 whole entry): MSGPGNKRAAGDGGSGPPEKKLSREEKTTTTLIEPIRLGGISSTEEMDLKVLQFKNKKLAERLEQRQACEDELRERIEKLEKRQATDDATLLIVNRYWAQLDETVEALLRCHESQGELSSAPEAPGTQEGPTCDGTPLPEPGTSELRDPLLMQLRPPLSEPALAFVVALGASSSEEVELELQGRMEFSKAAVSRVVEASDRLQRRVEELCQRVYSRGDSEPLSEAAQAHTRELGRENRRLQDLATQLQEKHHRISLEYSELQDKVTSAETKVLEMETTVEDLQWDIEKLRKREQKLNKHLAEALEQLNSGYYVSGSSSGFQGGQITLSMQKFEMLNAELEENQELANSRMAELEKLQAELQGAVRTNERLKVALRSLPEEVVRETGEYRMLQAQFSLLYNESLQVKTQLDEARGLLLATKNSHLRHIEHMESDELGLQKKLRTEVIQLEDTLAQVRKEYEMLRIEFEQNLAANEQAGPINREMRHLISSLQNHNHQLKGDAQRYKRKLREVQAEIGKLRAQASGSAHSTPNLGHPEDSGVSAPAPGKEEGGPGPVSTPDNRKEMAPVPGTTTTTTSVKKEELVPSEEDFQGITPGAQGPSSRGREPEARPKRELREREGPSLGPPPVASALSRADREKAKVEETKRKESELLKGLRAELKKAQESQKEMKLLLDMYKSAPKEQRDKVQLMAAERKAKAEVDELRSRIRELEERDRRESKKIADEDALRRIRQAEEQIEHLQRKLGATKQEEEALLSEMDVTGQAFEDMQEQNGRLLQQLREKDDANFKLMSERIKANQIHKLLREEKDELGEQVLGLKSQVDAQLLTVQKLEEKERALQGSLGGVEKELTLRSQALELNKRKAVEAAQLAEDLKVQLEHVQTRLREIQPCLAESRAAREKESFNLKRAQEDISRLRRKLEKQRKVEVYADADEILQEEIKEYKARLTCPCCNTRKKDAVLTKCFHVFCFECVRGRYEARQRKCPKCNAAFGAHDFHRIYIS

B1: untagged WAC (baculovirus) (natural protein, UniProt Q9BTA9 1-647, looked up)
chain: MVMYARKQQRLSDGCHDRRGDSQPYQALKYSSKSHPSSGDHRHEKMRDAGDPSPPNKMLRRSDSPENKYSDSTGHSKAKNVHTHRVRERDGGTSYSPQENSHNHSALHSSNSHSSNPSNNPSKTSDAPYDSADDWSEHISSSGKKYYYNCRTEVSQWEKPKEWLEREQRQKEANKMAVNSFPKDRDYRREVMQATATSGFASGMEDKHSSDASSLLPQNILSQTSRHNDRDYRLPRAETHSSSTPVQHPIKPVVHPTATPSTVPSSPFTLQSDHQPKKSFDANGASTLSKLPTPTSSVPAQKTERKESTSGDKPVSHSCTTPSTSSASGLNPTSAPPTSASAVPVSPVPQSPIPPLLQDPNLLRQLLPALQATLQLNNSNVDISKINEVLTAAVTQASLQSIIHKFLTAGPSAFNITSLISQAAQLSTQAQPSNQSPMSLTSDASSPRSYVSPRISTPQTNTVPIKPLISTPPVSSQPKVSTPVVKQGPVSQSATQQPVTADKQQGHEPVSPRSLQRSSSQRSPSPGPNHTSNSSNASNATVVPQNSSARSTCSLTPALAAHFSENLIKHVQGWPADHAEKQASRLREEAHNMGTIHMSEICTELKNLRSLVRVCEIQATLREQRILFLRQQIKELEKLKNQNSFMV
B1: the “stoichiometry N” value in the assay with SBP-RNF20 (baculovirus) is ~1 WAC per RNF20 (2:2); with SFB-RNF40 (baculovirus), ~1 WAC per RNF40 (2:2).

Values taken from publication PMC3062166 (Molecular cell, 2011).
